Experiments:
[1] = biological target: Fc region of human IgE (ε.Fc 2-4), Ser226 to Gly599, N265Q and N371Q (human) (UniProt P01854); experiment: competitive ELISA on coated ε.Fc 2-4; competitor HRP-conjugated c8D6
[2] = biological target: T1, mIgE.FcL (CH2-cytoplasmic tail of the long form of human membrane ε chain) on Ramos cells (human, UniProt P01854 104-546, limits assumed); experiment: flow cytometry on mIgE.FcL-expressing Ramos cells, FITC anti-human IgG-Fc detection, geometric mean intensity
T1 construct: domain: CH2-cytoplasmic tail of the long form of membrane ε chain; also called mIgE.FcL Ramos
T1 sequence (P01854 104-546 limits assumed, form in doubt): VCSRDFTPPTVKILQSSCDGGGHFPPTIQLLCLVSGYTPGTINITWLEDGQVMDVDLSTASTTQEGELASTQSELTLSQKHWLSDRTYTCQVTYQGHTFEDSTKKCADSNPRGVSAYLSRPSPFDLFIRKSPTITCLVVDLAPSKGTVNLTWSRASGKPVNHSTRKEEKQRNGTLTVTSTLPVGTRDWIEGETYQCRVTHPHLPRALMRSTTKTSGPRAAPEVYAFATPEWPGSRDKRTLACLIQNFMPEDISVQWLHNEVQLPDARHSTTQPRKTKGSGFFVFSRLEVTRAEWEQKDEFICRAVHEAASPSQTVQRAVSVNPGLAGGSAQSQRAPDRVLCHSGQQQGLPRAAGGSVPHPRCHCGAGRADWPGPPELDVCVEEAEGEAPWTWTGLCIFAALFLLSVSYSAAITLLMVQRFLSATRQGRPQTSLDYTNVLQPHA
Experimental: (§1) Ramos cells expressing mIgE.FcL or mIgE.FcS were resuspended in FACS buffer (1% FBS and 0.1% sodium azide in 1×PBS) at a cell density of 2×10⁶ cells/mL. […] Bound antibodies were detected by FITC-labeled goat IgG specific for human IgG-Fc (Caltag Laboratories). The stained cells were analyzed on a FACS Canto II flow cytometer (BD Biosciences). The geometric means of fluorescence intensity for the binding of antibodies to Ramos cell lines were analyzed using the FCSExpress software (DeNono software). The EC₅₀ was calculated using the Prism software.

[3] = biological target: Fc region of human IgE (ε.Fc 2-4), Ser226 to Gly599, N265Q and N371Q (human) (UniProt P01854); experiment: ELISA, ε.Fc 2-4 coated, antibody titrated
[4] = biological target: T2, mIgE.FcS (CH2-cytoplasmic tail of the short form of human membrane ε chain) on Ramos cells (human, UniProt P01854-3 104-494, limits assumed); experiment: flow cytometry on mIgE.FcS-expressing Ramos cells; c8D6, not hu8D6
T2 construct: domain: CH2-cytoplasmic tail of the short form of membrane ε chain; also called mIgE.FcS Ramos
T2 sequence (P01854 other isoform, or with tags, fused parts or gaps limits assumed): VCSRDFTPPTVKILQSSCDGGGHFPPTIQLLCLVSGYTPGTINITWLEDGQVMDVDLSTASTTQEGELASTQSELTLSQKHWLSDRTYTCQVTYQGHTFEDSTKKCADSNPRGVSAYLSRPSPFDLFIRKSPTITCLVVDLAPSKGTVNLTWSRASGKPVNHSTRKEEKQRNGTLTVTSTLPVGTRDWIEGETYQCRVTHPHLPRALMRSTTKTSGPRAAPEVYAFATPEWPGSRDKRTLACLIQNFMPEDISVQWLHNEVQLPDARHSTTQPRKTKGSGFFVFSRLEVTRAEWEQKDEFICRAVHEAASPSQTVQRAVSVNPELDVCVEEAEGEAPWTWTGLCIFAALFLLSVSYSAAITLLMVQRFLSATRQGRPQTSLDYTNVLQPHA
Experimental: as §1

[5] = biological target: T2, mIgE.FcS (CH2-cytoplasmic tail of the …); experiment: flow cytometry on mIgE.FcS-expressing Ramos cells, FITC anti-human IgG-Fc detection, geometric mean intensity
Experimental: as §1

[6] = biological target: Fc region of human IgE (ε.Fc 2-4), Ser226 to Gly599, N265Q and N371Q (human) (UniProt P01854); experiment: competition ELISA on coated ε.Fc 2-4; competitor HRP-conjugated c8D6 at fixed dilution, unconjugated antibody titrated
[7] = biological target: Fc region of human IgE (ε.Fc 2-4), Ser226 to Gly599, N265Q and N371Q (human) (UniProt P01854); experiment: ELISA, ε.Fc 2-4 coated on the plate, antibody titrated, OD450

Sequence of Fc region of human IgE (ε.Fc 2-4), Ser226 to Gly599, N265Q and N371Q (human) (P01854 106-427, stated change not applied): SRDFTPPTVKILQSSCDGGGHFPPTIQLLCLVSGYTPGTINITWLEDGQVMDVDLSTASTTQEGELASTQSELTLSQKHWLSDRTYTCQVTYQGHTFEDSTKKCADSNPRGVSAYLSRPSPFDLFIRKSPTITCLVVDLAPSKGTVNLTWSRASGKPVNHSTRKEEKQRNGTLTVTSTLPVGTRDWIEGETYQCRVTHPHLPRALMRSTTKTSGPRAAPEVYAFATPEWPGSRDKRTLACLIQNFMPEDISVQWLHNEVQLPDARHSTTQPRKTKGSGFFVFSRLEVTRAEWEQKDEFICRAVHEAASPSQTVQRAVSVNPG

- IC50 [1]: 2.28 nM
- EC50 (read off the curve) [2]: ~0.03 mg/L
- EC50 [3]: 0.116 nM
- EC50 [4]: 0.3 nM
- EC50 (read off the curve) [5]: ~0.04 mg/L
- IC50 (read off the curve) [6]: 0.4 mg/L
- EC50 (read off the curve) [7]: 0.02 mg/L
B1: chimeric 8D6 antibody (antibody, V domains shown)
VH: QVQLQQSGAELAKPGASVMLSCKASGYTFNGYWMHWVKQRPGQDLEWIGYINPTTGHTEYNQKFKDKATLTADESSNTAYIELSSLTSDDSAVYYCARQEYRHSWFAYWGQGTLVTVSA
VL: DIVLTQSPASLAVSLGQRATISCKASQSVDYDGDTYMNWYHQKPGQPPKLLIYAASNLDSGIPARFSGSGSGTDFTLNIHPVEEEDAATYYCQQTNEDPWTFGGGTKLEIK
notes: c8D6 is the chimeric form of 8D6 with human constant regions (detected with anti-human IgG-Fc); also called parent c8D6 antibody; HRP-conjugated c8D6
